Laboratory results taken from US20210373004A1 (BIOASTER, published 2021).

Columns and labels:
Flag-mCherry-ColE8-6His [1] = target: T1, Flag-mCherry-ColE8-6His (Escherichia coli); assay: EIA: colicin coated at 100 nM, Im-RLuc8 at 100 nM, luminescence; light bar alone, dark bar with the 3 other unfused Im proteins
T1 construct: also called Colicin E8

Flag-EmGFP-ColE7-6His [2] = target: T2, Flag-EmGFP-ColE7-6His (Escherichia coli); assay: EIA 8 plex n° 1: colicin coated at 100 nM, Im-RLuc8 alone at 100 nM, luciferase signal (FIG. 3, light grey bars)
T2 construct: also called Colicin E7

Flag-mCherry-ColE9-6His [3] = target: T3, Flag-mCherry-ColE9-6His (Escherichia coli); assay: kinetics, literature value (Li W. et al., 2004) printed above the bar pair; unit from the legend paragraph 10
T3 construct: also called Colicin E9

Flag-EmGFP-ColE2-6His [4] = target: T4, Flag-EmGFP-ColE2-6His (Escherichia coli); assay: as above
T4 construct: Coated on the plate or sprayed on the membrane; also called Colicin E2

[5] = target: T5, Flag-mCherry-ColAP41-Cys-6His (Pseudomonas aeruginosa AP41); assay: EIA 8 plex n° 1: colicin coated at 100 nM, Im-RLuc8 at 100 nM, luminescence; light bar alone, dark bar with the 7 other unfused Im proteins
[6] = target: T6, Flag-mCherry-ColKhan-Cys-6His (Photorhabdus khanii); assay: as above
[7] = target: Flag-mCherry-ColSyr-Cys-6His (Pseudomonas syringae B728A); assay: as above
[8] = target: T7, Flag-mCherry-ColErw-Cys-6His (Pectobacterium carotovorum); assay: as above
Flag-EmGFP-ColE7-6His [9] = target: T2, Flag-EmGFP-ColE7-6His; assay: EIA 4 plex: colicin coated at 100 nM, Im-RLuc8 alone at 100 nM, luciferase signal (FIG. 1, light grey bars)
[10] = target: T5, Flag-mCherry-ColAP41-Cys-6His; assay: EIA 8 plex n° 1: colicin coated at 100 nM, Im-RLuc8 alone at 100 nM, luciferase signal (FIG. 3, light grey bars)
[11] = target: T5, Flag-mCherry-ColAP41-Cys-6His; assay: EIA 8 plex n° 2: colicin coated at 100 nM, Im-RLuc8 alone at 100 nM, luciferase signal (FIG. 4, light grey bars)
Flag-EmGFP-ColE7-6His [12] = target: T2, Flag-EmGFP-ColE7-6His; assay: EIA 8 plex n° 1: colicin coated at 100 nM, Im-RLuc8 at 100 nM, luminescence; light bar alone, dark bar with the 7 other unfused Im proteins
Flag-mCherry-ColE8-6His [13] = target: T1, Flag-mCherry-ColE8-6His; assay: as above
Flag-mCherry-ColE9-6His [14] = target: T3, Flag-mCherry-ColE9-6His; assay: as above
Flag-EmGFP-ColE2-6His [15] = target: T4, Flag-EmGFP-ColE2-6His; assay: as above
[16] = target: T6, Flag-mCherry-ColKhan-Cys-6His; assay: EIA 8 plex n° 2: colicin coated at 100 nM, Im-RLuc8 at 100 nM, luminescence; light bar alone, dark bar with the 7 other unfused Im proteins
[17] = target: T8, Flag-mCherry-ColLeaf-Cys-6His (Pseudomonas sp Leaf83); assay: as above
[18] = target: T8, Flag-mCherry-ColLeaf-Cys-6His; assay: EIA 8 plex n° 2: colicin coated at 100 nM, Im-RLuc8 alone at 100 nM, luciferase signal
Flag-mCherry-ColE8-6His [19] = target: T1, Flag-mCherry-ColE8-6His; assay: EIA 8 plex n° 1: colicin coated at 100 nM, Im-RLuc8 alone at 100 nM, luciferase signal (FIG. 3, light grey bars)
Flag-EmGFP-ColE7-6His [20] = target: T2, Flag-EmGFP-ColE7-6His; assay: kinetics, literature value (Li W. et al., 2004) printed above the bar pair; unit from the legend paragraph 10
Flag-mCherry-ColE8-6His [21] = target: T1, Flag-mCherry-ColE8-6His; assay: EIA 8 plex n° 2: colicin coated at 100 nM, Im-RLuc8 alone at 100 nM, luciferase signal (FIG. 4, light grey bars)
Flag-mCherry-ColE8-6His [22] = target: T1, Flag-mCherry-ColE8-6His; assay: EIA 4 plex: colicin coated at 100 nM, Im-RLuc8 alone at 100 nM, luciferase signal (FIG. 1, light grey bars)
[23] = target: T5, Flag-mCherry-ColAP41-Cys-6His; assay: EIA 8 plex n° 2: colicin coated at 100 nM, Im-RLuc8 at 100 nM, luminescence; light bar alone, dark bar with the 7 other unfused Im proteins
Flag-EmGFP-ColE7-6His [24] = target: T2, Flag-EmGFP-ColE7-6His; assay: EIA 8 plex n° 1: colicin coated at 100 nM, Im-RLuc8 alone at 100 nM, luciferase signal
Flag-mCherry-ColE9-6His [25] = target: T3, Flag-mCherry-ColE9-6His; assay: as above
[26] = target: T7, Flag-mCherry-ColErw-Cys-6His; assay: as above
Flag-EmGFP-ColE2-6His [27] = target: T4, Flag-EmGFP-ColE2-6His; assay: EIA 8 plex n° 1: colicin coated at 100 nM, Im-RLuc8 alone at 100 nM, luciferase signal (FIG. 3, light grey bars)
Flag-mCherry-ColE8-6His [28] = target: T1, Flag-mCherry-ColE8-6His; assay: kinetics, literature value (Li W. et al., 2004) printed above the bar pair; unit from the legend paragraph 10
Flag-EmGFP-ColE2-6His [29] = target: T4, Flag-EmGFP-ColE2-6His; assay: EIA 8 plex n° 2: colicin coated at 100 nM, Im-RLuc8 alone at 100 nM, luciferase signal (FIG. 4, light grey bars)
Flag-EmGFP-ColE2-6His [30] = target: T4, Flag-EmGFP-ColE2-6His; assay: EIA 4 plex: colicin coated at 100 nM, Im-RLuc8 alone at 100 nM, luciferase signal (FIG. 1, light grey bars)
[31] = target: T7, Flag-mCherry-ColErw-Cys-6His; assay: EIA 8 plex n° 2: colicin coated at 100 nM, Im-RLuc8 at 100 nM, luminescence; light bar alone, dark bar with the 7 other unfused Im proteins

B1: Myc-RLuc8-Im7-6His (other)
chain: MGGEQKLISEEDLGGSASKVYDPEQRKRMITGPQWWARCKQMNVLDSFINYYDSEKHAENAVIFLHGNATSSYLWRHVVPHIEPVARCIIPDLIGMGKSGKSGNGSYRLLDHYKYLTAWFELLNLPKKIIFVGHDWGAALAFHYAYEHQDRIKAIVHMESVVDVIESWDEWPDIEEDIALIKSEEGEKMVLENNFFVETVLPSKIMRKLEPEEFAAYLEPFKEKGEVRRPTLSWPREIPLVKGGKPDVVQIVRNYNAYLRASDDLPKLFIESDPGFFSNAIVEGAKKFPNTEFVKVKGLHFLQEDAPDEMGKYIKSFVERVLKNEQKLELKNSISDYTEAEFVQLLKEIEKENVAATDDVLDVLLEHFVKITEHPDGTDLIYYPSDNRDDSPEGIVKEIKEWRAANGKPGFKQGLEGGGSHHHHHH
notes: Immunity protein fused to the luciferase RLuc8 as reporter; added in solution; also called Im7-RLuc8; Im7-Rluc8
binding result (Flag-mCherry-ColE8-6His [1]): binds
RLU (Flag-EmGFP-ColE7-6His [2]): > 2e+06 RLU
Kd (Flag-mCherry-ColE9-6His [3]): ~100000 nM
Kd (Flag-EmGFP-ColE2-6His [4]): 14 nM
binding result [5]: no binding (tested: 100 nM)
binding result [6]: no binding (tested: 100 nM)
binding result [7]: no binding (tested: 100 nM)
binding result [8]: no binding (tested: 100 nM)
RLU (Flag-EmGFP-ColE7-6His [9]): > 400000 RLU

B2: Myc-RLuc8-ImAP41-Avitag-6His (other)
chain: MGGEQKLISEEDLGGSASKVYDPEQRKRMITGPQWWARCKQMNVLDSFINYYDSEKHAENAVIFLHGNATSSYLWRHVVPHIEPVARCIIPDLIGMGKSGKSGNGSYRLLDHYKYLTAWFELLNLPKKIIFVGHDWGAALAFHYAYEHQDRIKAIVHMESVVDVIESWDEWPDIEEDIALIKSEEGEKMVLENNFFVETVLPSKIMRKLEPEEFAAYLEPFKEKGEVRRPTLSWPREIPLVKGGKPDVVQIVRNYNAYLRASDDLPKLFIESDPGFFSNAIVEGAKKFPNTEFVKVKGLHFLQEDAPDEMGKYIKSFVERVLKNEQKLPGGSDIKNNLSDYTESEFLEIIEEFFKNKSGLKGSELEKRMDKLVKHFEEVTSHPRKSGVIFHPKPGFETPEGIVKEVKEWRAANGLPGFKAGLEGGSGGSGLNDIFEAQKIEWHELEGGGSHHHHHH
notes: Immunity protein fused to the luciferase RLuc8 as reporter; added in solution; also called ImAP41-Rluc8
RLU [10]: > 2e+06 RLU
RLU [11]: > 2.4e+06 RLU
binding result (Flag-EmGFP-ColE7-6His [12]): no binding (tested: 100 nM)
binding result (Flag-mCherry-ColE8-6His [13]): no binding (tested: 100 nM)
binding result (Flag-mCherry-ColE9-6His [14]): no binding (tested: 100 nM)
binding result [7]: no binding (tested: 100 nM)
binding result (Flag-EmGFP-ColE2-6His [15]): no binding (tested: 100 nM)
binding result [8]: no binding (tested: 100 nM)
binding result [16]: no binding (tested: 100 nM)
binding result [17]: no binding (tested: 100 nM)

B3: Myc-RLuc8-Im8-6His (other)
chain: MGGEQKLISEEDLGGSASKVYDPEQRKRMITGPQWWARCKQMNVLDSFINYYDSEKHAENAVIFLHGNATSSYLWRHVVPHIEPVARCIIPDLIGMGKSGKSGNGSYRLLDHYKYLTAWFELLNLPKKIIFVGHDWGAALAFHYAYEHQDRIKAIVHMESVVDVIESWDEWPDIEEDIALIKSEEGEKMVLENNFFVETVLPSKIMRKLEPEEFAAYLEPFKEKGEVRRPTLSWPREIPLVKGGKPDVVQIVRNYNAYLRASDDLPKLFIESDPGFFSNAIVEGAKKFPNTEFVKVKGLHFLQEDAPDEMGKYIKSFVERVLKNEQKLELKNSISDYTETEFKKIIEDIINCEGDEKKQDDNLEHFISVTEHPSGSDLIYYPEGNNDGSPEAVIKEIKEWRAANGKSGFKQGLEGGGSHHHHHH
notes: Immunity protein fused to the luciferase RLuc8 as reporter; added in solution; also called Im8-RLuc8; Im8-Rluc8
RLU [18]: > 100000 RLU
RLU (Flag-mCherry-ColE8-6His [19]): > 2e+06 RLU
Kd (Flag-EmGFP-ColE7-6His [20]): 0.37 nM
Kd (Flag-mCherry-ColE9-6His [3]): 500 nM
Kd (Flag-EmGFP-ColE2-6His [4]): 38 nM
RLU (Flag-mCherry-ColE8-6His [21]): > 2.4e+06 RLU
binding result [6]: no binding (tested: 100 nM)
binding result [7]: no binding (tested: 100 nM)
RLU (Flag-mCherry-ColE8-6His [22]): > 400000 RLU
binding result [23]: no binding (tested: 100 nM)
RLU (Flag-EmGFP-ColE7-6His [24]): > 100000 RLU
RLU (Flag-mCherry-ColE9-6His [25]): > 100000 RLU
RLU [26]: > 100000 RLU

B4: Myc-RLuc8-Im2-6His (other)
chain: MGGEQKLISEEDLGGSASKVYDPEQRKRMITGPQWWARCKQMNVLDSFINYYDSEKHAENAVIFLHGNATSSYLWRHVVPHIEPVARCIIPDLIGMGKSGKSGNGSYRLLDHYKYLTAWFELLNLPKKIIFVGHDWGAALAFHYAYEHQDRIKAIVHMESVVDVIESWDEWPDIEEDIALIKSEEGEKMVLENNFFVETVLPSKIMRKLEPEEFAAYLEPFKEKGEVRRPTLSWPREIPLVKGGKPDVVQIVRNYNAYLRASDDLPKLFIESDPGFFSNAIVEGAKKFPNTEFVKVKGLHFLQEDAPDEMGKYIKSFVERVLKNEQKLELKHSISDYTEAEFLEFVKKICRAEGATEEDDNKLVREFERLTEHPDGSDLIYYPRDDREDSPEGIVKEIKEWRAANGKSGFKQGLEGGGSHHHHHH
notes: Immunity protein fused to the luciferase RLuc8 as reporter; added in solution; also called Im2-RLuc8; Im2-Rluc8
RLU (Flag-EmGFP-ColE2-6His [27]): > 2e+06 RLU
Kd (Flag-EmGFP-ColE7-6His [20]): 0.36 nM
Kd (Flag-mCherry-ColE8-6His [28]): 18 nM
Kd (Flag-EmGFP-ColE2-6His [4]): 3.9e-06 nM
RLU (Flag-EmGFP-ColE2-6His [29]): > 2.4e+06 RLU
binding result [5]: no binding (tested: 100 nM)
binding result [6]: no binding (tested: 100 nM)
binding result [7]: no binding (tested: 100 nM)
RLU (Flag-EmGFP-ColE2-6His [30]): > 400000 RLU
binding result [17]: no binding (tested: 100 nM)
binding result [31]: no binding (tested: 100 nM)
